The values below come from article doi:10.1101/330266 (bioRxiv, 2019).

The series deals with the molecule itself. Kind of series: thioflavin T.
As for Ac-DNIKHVPGGGNVQIVYK-NH2 [R2R3-S305N peptide fragment], the binding result is recorded as “binds”.

Regarding Ac-DNIKHVPGVGSVQIVYK-NH2 [R2R3-G303V peptide fragment], the binding result is given as “binds”.

For Ac-DNIKHVSGGGSVQIVYK-NH2 [R2R3-P301S peptide fragment], the binding result is “binds”.

For Ac-DNIKHVLGGGSVQIVYK-NH2 [R2R3-P301L peptide fragment], the binding result is on record as “binds”.

On to Ac-DNIKHIPGGGSVQIVYK-NH2 [R2R3-V300I peptide fragment], for which the binding result was “binds”.

With Ac-VQIVYK-NH2 [306VQIVYK311 hexapeptide], the binding result is reported as “binds”.
